This is an account of results in article PMC10686790, “Crystal structure of the GDSL family esterase EstL5 in complex with PMSF reveals a branch channel of the active site pocket” (Acta Biochimica et Biophysica Sinica, 2023).

B1: EstL5 (Geobacillus thermodenitrificans) (protein)
chain: ALVVQDQLFTAAKPSIEQKRPSANEAKKRDGEIDIVALGDSLTRGTGDESGKGYIGYMVDELRQQTDEPIRVTNLAIRGLRSDGLLRQLGQSEIQRQIAMADLIVMTIGGNDLFQGGEALEWNVKELDEAKRQYIANLDRIFALLRRLNSEAVIFAIGLYNPFSDLDDAKRTSAIVRDWNFASAEVAAHYPNIVAVPTFDLFALHVNDYLYSDHFHPNKEGYKRIGERVASLITLTEEDRQ
notes: without deduced signal peptide, N-terminal His tag, pET28b, E. coli BL21(DE3); two molecules in asymmetric unit
B2: EstL5 (Geobacillus thermodenitrificans; S207W) (protein)
chain: B1 chain with S183W
notes: as for B1
B3: EstL5 (Geobacillus thermodenitrificans; S207F) (protein)
chain: B1 chain with S183F
notes: as for B1

Substitutions are numbered along the chain they refer to. Numbers in names are those of the source.

Substrate in this series: CCCC(=O)Oc1ccc([N+](=O)[O-])cc1
As to the kind of experiment: purified protein. It counts as biochemical, Geobacillus thermodenitrificans. The note with it: 20 mM Tris-HCl pH 8.0, 30°C.
As usually defined, the Km is the concentration of substrate that gives half-maximal velocity. In the case of B1, the Km came out at 640 ± 2210 µM and the kcat turned out to be 116.27±1.71 S-1.

Take B2: the Km was determined as 790 ± 2670 µM and the kcat was 86.78±1.03 S-1.

On to B3, for which the Km came to 650 ± 1920 µM and the kcat is 86.51±1.68 S-1.
